B1: Twister Ribozyme (parent)
chain: AACACUGCCAAUGCCGGUCCCAAGCCCGGAUAAAAGUGGAGGGGGCGG

Variants of: B1
Experiment: self-cleavage, relative activity (ratio to wild type); higher = more cleavage; co-transcriptional
Work on AACACUGCCAAUGCGGGUCCCAAGCCCGGAUAAAAGUGGCGGGGGCGG [C15G A40C] yielded a self-cleavage of 0.0616.
Variant AACACUGCCAAUGCGGGUCCCAAGCCCGGAUAAAAGUGGGGGGGGCGG [C15G A40G] has a self-cleavage of 0.114.
AACACUGCCAAUGCGGGUCCCAAGCCCGGAUAAAAGUAGAGGGGGCGG [C15G G38A] gave a self-cleavage of 0.0635.
Work on AACACUGCCAAUGCGGGUCCGAAGCCCGGAUAAAAGUGGAGGGGGCGG [C15G C21G] yielded a self-cleavage of 0.0959.
Work on AACACUGCCAAUGCGGGUCCUAAGCCCGGAUAAAAGUGGAGGGGGCGG [C15G C21U] yielded a self-cleavage of 0.0717.
With AACACUGCCAAUGCGGGUCCAAAGCCCGGAUAAAAGUGGAGGGGGCGG [C15G C21A] the self-cleavage was 0.077.
Work on AACACUGCCAAUGCGGGUCCCAAGCCCUGAUAAAAGUGGAGGGGGCGG [C15G G28U] yielded a self-cleavage of 0.761.
In the case of AACACUGCCAAUGCUGGUCCCAUGCCCGGAUAAAAGUGGAGGGGGCGG [C15U A23U], the self-cleavage is reported as 0.291.
AACACUGCCAAUGCGGGUCCCAAGCCCGGAUAAAAGUGGAGUGGGCGG [C15G G42U] gave a self-cleavage of 0.084.
In the case of AACACUGCCAAUGCGGGUCCCAAGCCCGGAUAAAAGUGGAGAGGGCGG [C15G G42A], the self-cleavage is reported as 0.0628.
Work on AACACUGCCAAUGCGGGUCCCAAGCCCGGAUAAAAGGGGAGGGGGCGG [C15G U37G] yielded a self-cleavage of 0.143.
In the case of AACACUGCCAAUGCGGGUCCCAAGCCCGGAUAAAAGCGGAGGGGGCGG [C15G U37C], the self-cleavage is reported as 0.114.
In the case of AACACUGCCAAUGCGGGUCCCAAGCCCGGAUAAAAGAGGAGGGGGCGG [C15G U37A], the self-cleavage is reported as 0.0636.
In the case of AACACUGCCAAUGCGGGUCCCAAGCCCGGAUAAAAGUGGAAGGGGCGG [C15G G41A], the self-cleavage is reported as 0.112.
AACACUGCCAAUGCGGGUCCCAAGCCCGGAUAAAAGUGGAUGGGGCGG [C15G G41U] gave a self-cleavage of 0.0559.
AACACUGCCAAUGCGGGGCCCAAGCCCGGAUAAAAGUGGAGGGGGCGG [C15G U18G] gave a self-cleavage of 0.0953.
AACACUGCCAAUGCGGGUCCCAAGCCCGGAUAAAAGUGUAGGGGGCGG [C15G G39U] gave a self-cleavage of 0.0441.
AACACUGCCAAUGCGGGUCCCAAGCCCGGAUAAAAGUGCAGGGGGCGG [C15G G39C] gave a self-cleavage of 0.104.
For AACACUGCCAAUGCGGGUCCCAAGCCCGGAUAAAAGUGGAGGAGGCGG [C15G G43A], the self-cleavage was 0.0569.
For AACACUGCCAAUGCUGGUCCCGAGCCCGGAUAAAAGUGGAGGGGGCGG [C15U A22G], the self-cleavage was 0.147.
Variant AACACUGCCAAUGCGGGUCCCAAGCCCGGAUAAAAAUGGAGGGGGCGG [C15G G36A] has a self-cleavage of 0.0815.
AACACUGCCAAUGCUGGUCCCAAGCCCGGAUAACAGUGGAGGGGGCGG [C15U A34C] gave a self-cleavage of 0.205.
In the case of AACACUGCCAAUGCGGGUCCCAAGCCCGUAUAAAAGUGGAGGGGGCGG [C15G G29U], the self-cleavage is reported as 0.11.
Work on AACACUGCCAAUGCGGGUCCCAAGCCCGGACAAAAGUGGAGGGGGCGG [C15G U31C] yielded a self-cleavage of 0.108.
For AACACUGCCAAUGCGGGUCCCAAGCCCGGAGAAAAGUGGAGGGGGCGG [C15G U31G], the self-cleavage was 0.153.
In the case of AACACUGCCAAUGCGGGUCACAAGCCCGGAUAAAAGUGGAGGGGGCGG [C15G C20A], the self-cleavage is reported as 0.0716.
AACACUGCCAAUGCGGGUCCCAAGCCCGGAUAACAGUGGAGGGGGCGG [C15G A34C] gave a self-cleavage of 0.0577.
In the case of AACACUGCCAAUGCUGGUCCCAAGCCCGGAUGAAAGUGGAGGGGGCGG [C15U A32G], the self-cleavage is reported as 0.891.
Variant AACACUGCCAAUGCUGGUCCCAAGCCCGGAUCAAAGUGGAGGGGGCGG [C15U A32C] has a self-cleavage of 0.678.
AACACUGCCAAUGCGGGUCCCAAGCCCGGAUAAAAGUGGAGGGGGGGG [C15G C46G] gave a self-cleavage of 0.111.
In the case of AACACUGCCAAUGCGGGUCCCAAGCCCGGAUAAAAGUGGAGGGGGAGG [C15G C46A], the self-cleavage is reported as 0.0745.
AACACUGCCAAUGCGGGUCCCAAGCCCGGAUAAAAGUGGAGGGGGUGG [C15G C46U] showed a self-cleavage of 0.075.
Variant AACACUGCCAAUGCUGGUCCCAAGCCCGGCUAAAAGUGGAGGGGGCGG [C15U A30C] has a self-cleavage of 0.802.
AACACUGCCAAUGCUGGUCCCAAGCCCGGUUAAAAGUGGAGGGGGCGG [C15U A30U] gave a self-cleavage of 0.925.
AACACUGCCAAUGCUGGUCCCAAGCCCGGGUAAAAGUGGAGGGGGCGG [C15U A30G] showed a self-cleavage of 0.759.
Work on AACACUGCCAAUGCGGGUCCCAAGCACGGAUAAAAGUGGAGGGGGCGG [C15G C26A] yielded a self-cleavage of 0.0956.
In the case of AACACUGCCAAUGCGGGUCCCAAGCUCGGAUAAAAGUGGAGGGGGCGG [C15G C26U], the self-cleavage is reported as 0.0429.
With AACACUGCCAAUGCGGGUACCAAGCCCGGAUAAAAGUGGAGGGGGCGG [C15G C19A] the self-cleavage was 0.0812.
AACACUGCCAAUGCGGGUGCCAAGCCCGGAUAAAAGUGGAGGGGGCGG [C15G C19G] showed a self-cleavage of 0.0636.
For AACACUGCCAAUGCUGGUCCCAAGCCCGGAUAUAAGUGGAGGGGGCGG [C15U A33U], the self-cleavage was 1.01.
For AACACUGCCAAUGCUGGUCCCAAGCCCGGAUAGAAGUGGAGGGGGCGG [C15U A33G], the self-cleavage was 0.802.
With AACACUGCCAAUGCUGGUCCCAAGCCCGGAUACAAGUGGAGGGGGCGG [C15U A33C] the self-cleavage was 0.839.
In the case of AACACUGCCAAUGCGGGUCCCAAGCCCGGAUAAAAGUGGAGGGGGCGA [C15G G48A], the self-cleavage is reported as 0.0877.
With AACACUGCCAAUGCGGGUCCCAAGCCCGGAUAAAAGUGGAGGGGGCGU [C15G G48U] the self-cleavage was 0.0875.
AACACUGCCAAUGCGGGUCCCAAGCCCGGAUAGAAGUGGAGGGGGCGG [C15G A33G] gave a self-cleavage of 0.0911.
Work on AACACUGCCAAUGCGGGUCCCAAGCCCGGAUAAAUGUGGAGGGGGCGG [C15G A35U] yielded a self-cleavage of 0.0985.
For AACACUGCCAAUGCGGGUCCCAAGUCCGGAUAAAAGUGGAGGGGGCGG [C15G C25U], the self-cleavage was 0.165.
AACACUGCCAAUGCGGGUCCCAAGACCGGAUAAAAGUGGAGGGGGCGG [C15G C25A] gave a self-cleavage of 0.0585.
AACACUGCCAAUGCGGGUCCCAAGGCCGGAUAAAAGUGGAGGGGGCGG [C15G C25G] showed a self-cleavage of 0.0786.
With AACACUGCCAAUGCGGGUCCCAAGCCCGGAUAAAAGUGGAGGGUGCGG [C15G G44U] the self-cleavage was 0.075.
With AACACUGCCAAUGCGGGUCCCAAGCCCGGAUAAAAGUGGAGGGCGCGG [C15G G44C] the self-cleavage was 0.0763.
Variant AACACUGCCAAUGCGGGUCCCAAGCCAGGAUAAAAGUGGAGGGGGCGG [C15G C27A] has a self-cleavage of 0.198.
Variant AACACUGCCAAUGCGGGUCCCAAGCCUGGAUAAAAGUGGAGGGGGCGG [C15G C27U] has a self-cleavage of 0.094.
For AACACUGCCAAUGCGGGUCCCAAGCCGGGAUAAAAGUGGAGGGGGCGG [C15G C27G], the self-cleavage was 0.0738.

— the RNAGym collection of RNA variant scans (doi:10.7554/elife.80360)
